Experimental data reported in patent US20210040193A1 (published 2021).

Key:
[1] = molecular target: T1, Recombinant human PD-1 (Beijing Sino Biological Inc., Catalog No. 10377-H08H) (human, UniProt Q15116 25-167); experiment: ELISA; panel B
[2] = molecular target: T1, Recombinant human PD-1 (Beijing Sino …); experiment: ELISA; panel A

T1 sequence (Q15116 25-167): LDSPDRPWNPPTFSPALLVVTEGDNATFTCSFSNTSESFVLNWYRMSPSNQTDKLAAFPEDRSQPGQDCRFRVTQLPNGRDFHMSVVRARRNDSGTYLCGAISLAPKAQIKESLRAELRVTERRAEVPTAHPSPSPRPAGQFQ

B1: PD-1 (BJHM) monoclonal antibody (antibody, V domains shown)
VH: EVNLVESGGGLVQPGGSLRLSCAASGFTFSSYGMSWVRQAPGKGLEWVASISGGGRYTYYPDSMKGRFTISRDNSKNNLYLQMNSLRAEDTAVYYCVYEYFYTMDYWGQGTLVTVSS
VL: DIVLTQSPATLSLSPGERATLSCRASQSISNNLHWYQQKPGQAPRLLIRFASQSISGIPARFSGSGSGTDFTLTISSLEPEDFAVYFCQQSDNWPLTFGGGTKVEIK
EC50 [1]: 40 pM
EC50 [2]: 61 pM
